We go through 2 molecules from patent publication US20190056396A1 (GLENMARK PHARMACEUTICALS S A, published 2019).

Assay [1] addresses T1, Protein A (UniProt P38507 37-477).
T1 construct: also called Protein A biosensors
Kind of assay: flow cytometry, FITC-labelled Protein A on CHO-S cells transfected with pHC-M1M2 + pLC.

Assay [2] deals with T1, Protein A. Kind of assay: Octet QK, Protein A biosensors, supernatant day 6.

B1: heavy chain-light chain homodimer of the BEAT antibody displayed on the cell membrane of CHO-S cells via the M1M2 transmembrane region (pHC-M1M2 + pLC) (antibody)
heavy: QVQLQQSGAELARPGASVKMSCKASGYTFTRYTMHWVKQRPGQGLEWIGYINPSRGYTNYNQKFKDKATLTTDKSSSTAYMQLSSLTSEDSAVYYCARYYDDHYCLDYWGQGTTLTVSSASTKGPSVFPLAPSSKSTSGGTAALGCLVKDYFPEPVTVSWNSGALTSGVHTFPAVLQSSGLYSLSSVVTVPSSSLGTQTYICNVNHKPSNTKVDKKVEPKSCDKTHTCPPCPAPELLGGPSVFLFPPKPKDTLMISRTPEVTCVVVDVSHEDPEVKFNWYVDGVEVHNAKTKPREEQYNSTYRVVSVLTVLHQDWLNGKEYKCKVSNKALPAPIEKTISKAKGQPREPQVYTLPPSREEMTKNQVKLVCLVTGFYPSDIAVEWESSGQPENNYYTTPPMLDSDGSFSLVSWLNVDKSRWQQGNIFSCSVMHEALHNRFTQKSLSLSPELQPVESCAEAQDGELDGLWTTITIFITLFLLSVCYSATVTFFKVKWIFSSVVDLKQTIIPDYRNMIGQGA
light: QIVLTQSPAIMSASPGEKVTMTCSASSSVSYMNWYQQKSGTSPKRWIYDTSKLASGVPAHFRGSGSGTSYSLTISGMEAEDAATYYCQQWSSNPFTFGSGTKLEINRTVAAPSVFIFPPSDEQLKSGTASVVCLLNNFYPREAKVQWKVDNALQSGNSQESVTEQDSKDSTYSLSSTLTLSKADYEKHKVYACEVTHQGLSSPVTKSFNRGEC
notes: also called Fab-DIM; Fab homodimer
For the molecule B1, the binding result with Protein A [1] is recorded as “no binding”.

B2: secreted heavy chain-light chain homodimer of the BEAT antibody (antibody)
heavy: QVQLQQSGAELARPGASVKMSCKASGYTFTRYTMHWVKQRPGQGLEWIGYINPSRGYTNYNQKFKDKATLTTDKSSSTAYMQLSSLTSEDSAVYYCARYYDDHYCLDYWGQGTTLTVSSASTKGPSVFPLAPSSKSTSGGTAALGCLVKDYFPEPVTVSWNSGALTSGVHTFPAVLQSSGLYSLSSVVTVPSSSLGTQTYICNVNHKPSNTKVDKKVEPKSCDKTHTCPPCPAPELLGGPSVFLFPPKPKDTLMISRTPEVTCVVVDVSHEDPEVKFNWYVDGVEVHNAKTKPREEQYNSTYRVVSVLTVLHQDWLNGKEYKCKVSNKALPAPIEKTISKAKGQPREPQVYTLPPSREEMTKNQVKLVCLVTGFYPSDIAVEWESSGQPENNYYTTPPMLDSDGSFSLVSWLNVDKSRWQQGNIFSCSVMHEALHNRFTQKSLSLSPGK
light: QIVLTQSPAIMSASPGEKVTMTCSASSSVSYMNWYQQKSGTSPKRWIYDTSKLASGVPAHFRGSGSGTSYSLTISGMEAEDAATYYCQQWSSNPFTFGSGTKLEINRTVAAPSVFIFPPSDEQLKSGTASVVCLLNNFYPREAKVQWKVDNALQSGNSQESVTEQDSKDSTYSLSSTLTLSKADYEKHKVYACEVTHQGLSSPVTKSFNRGEC
notes: as for B1
For B2, the binding result in the assay with Protein A [2] was “no binding”.
